From US20140356379A1 (CENTRE NATIONAL DE LA RECHERCHE SCIENTIQUE CNRS, published 2014)

Tests used:
[1] = biological target: T1, recombinant human sPLA2-V (human, UniProt P39877 21-138); assay: indirect ELISA on coated recombinant human sPLA2-V, anti-mouse IgG-HRP detection, one-site saturation fit
T1 construct: The cDNA for the mature enzyme was cloned in frame to an initiator Met codon; also called hGV; human PLA2-V
T1 sequence: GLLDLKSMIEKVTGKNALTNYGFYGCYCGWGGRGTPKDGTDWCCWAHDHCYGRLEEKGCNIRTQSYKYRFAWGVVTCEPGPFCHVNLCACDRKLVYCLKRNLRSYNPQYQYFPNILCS

[2] = biological target: T1, recombinant human sPLA2-V; assay: indirect ELISA on coated recombinant human sPLA2-V, one-site saturation fit (relative Kd)
[3] = biological target: T1, recombinant human sPLA2-V; assay: indirect ELISA on coated recombinant human sPLA2-V, streptavidin-HRP detection, one-site saturation fit

B1: 19F3 antibody (antibody, V domains shown)
VH: EVQLQLSGADLVKPGASVKLSCTASGFNIKDSYIHWVKQRPEPGLEWIGRIDPANGNTKYDPKFQGKATITADTSSNTAYLQLTSLTSEDTAVYYCARDVVALDYWGQGTTLTVSS
VL: QIVLTQSPAIMSASPGEKVTMTCSASSSVSYMYWYQQKPGSSPRLLIYDTSNLASGVPVRFSGSGSGTSYSLTISRMEAEDAATYYCQQWSSYPLTFGAGTKLELKR
notes: also called mAb #19F3; hybridoma CNCM I-4522
In the case of B1, the Kd [1] is reported as 0.089 nM and the Kd [2] is reported as 0.0842 nM.

B2: biotinylated monoclonal antibody #19F3 (antibody, V domains shown)
VH: EVQLQLSGADLVKPGASVKLSCTASGFNIKDSYIHWVKQRPEPGLEWIGRIDPANGNTKYDPKFQGKATITADTSSNTAYLQLTSLTSEDTAVYYCARDVVALDYWGQGTTLTVSS
VL: QIVLTQSPAIMSASPGEKVTMTCSASSSVSYMYWYQQKPGSSPRLLIYDTSNLASGVPVRFSGSGSGTSYSLTISRMEAEDAATYYCQQWSSYPLTFGAGTKLELKR
modifications: biotinylated with a Pierce kit (ref. 21435); sites not stated
notes: also called #19F3-Biot; 19F3-Biot
Work on B2 yielded a Kd [3] of 0.0082 nM.

B3: 18G6 antibody (antibody, V domains shown)
VH: QVQLQQSGPELVKPGASVKMSCKASGYTFTDYVITWVKQRTGQGLEWIGEIYPGSGSTYYDEKFKGKATLTADKSSNTAYMQLSSMTSEDSAVYFCARWFPYFDYWGQGTTLTVSS
VL: QIVLTQSPAIMSASPGEKVTISCSASSSVSYMYWYQQKPGSSPKPWIYRTSNLASGVPARFSGSGSGTSYSLTISSMEAEDAATYYCQQYHSYPLTFGAGTKLELKR
notes: also called mAb #18G6; hybridoma CNCM I-4521
In the case of B3, the Kd [1] is reported as 0.53 nM and the Kd [2] is reported as 0.305 nM.

B4: biotinylated monoclonal antibody #18G6 (antibody, V domains shown)
VH: QVQLQQSGPELVKPGASVKMSCKASGYTFTDYVITWVKQRTGQGLEWIGEIYPGSGSTYYDEKFKGKATLTADKSSNTAYMQLSSMTSEDSAVYFCARWFPYFDYWGQGTTLTVSS
VL: QIVLTQSPAIMSASPGEKVTISCSASSSVSYMYWYQQKPGSSPKPWIYRTSNLASGVPARFSGSGSGTSYSLTISSMEAEDAATYYCQQYHSYPLTFGAGTKLELKR
modifications: biotinylated with a Pierce kit (ref. 21435); sites not stated
notes: also called #18G6-Biot; 18G6-Biot
With B4 the Kd [3] was 0.31 nM.
